Patent US20230212285A1

Target: human C-KIT-Fc protein (human) (UniProt P10721)
Experiment: direct ELISA, IgG at 1 µg/ml

Binder	OD450 nm
E-C2 (antibody, human IgG1, V domains shown) VH: QVQLVQSGAEVKKPGASVKVSCKASGYTFTDYYMNWVRQAPGQGLEWMGRIYPGSGNTYYAQKFQGRVTMTRDTSTSTVYMELSSLRSEDTAVYYCARGVYYLDYWGQGTLVTVSS VL: DIQMTQSPSSLSASVGDRVTITCRASQGIRTNVAWLQQKPGKAPKSLIYSASYRQSGVPSRFSGSGSGTDFTLTISSLQPEDFATYYCQQYNSYPRTFGGGTKVEIK	> 1.8 OD450 nm
MH1 IgG1 (antibody, V domains shown) VH: QVQLVQSGAEVKKPGASVKVSCKASGYTFTDYYMNWVRQAPGQGLEWMGRIYPGSGNTYYAQKFQGRVTMTRDTSTSTVYMELSSLRSEDTAVYYCARGVYYYDYWGQGTLVTVSS VL: DIQMTQSPSSLSASVGDRVTITCRASQGIRTNLAWFQQKPGKAPKSLIYAASSLQSGVPSRFSGSGSGTDFTLTISSLQPEDFATYYCQQYNSYPRTFGGGTKVEIK	> 1.8 OD450 nm
